Source: paper PMC6847465 (Nucleic Acids Research, 2019)
Ends that are not written are not given here. * marks the point of attachment. Biotin = O=C1N[C@H]2[C@H](CS[C@H]2CCCCC(=O)*)N1

Target: GST–BRCA1–BRCT (UniProt P38398 1582-1863)
Experiment: pull-down

GST–BRCA1–BRCT, sequence (P38398 1582-1863): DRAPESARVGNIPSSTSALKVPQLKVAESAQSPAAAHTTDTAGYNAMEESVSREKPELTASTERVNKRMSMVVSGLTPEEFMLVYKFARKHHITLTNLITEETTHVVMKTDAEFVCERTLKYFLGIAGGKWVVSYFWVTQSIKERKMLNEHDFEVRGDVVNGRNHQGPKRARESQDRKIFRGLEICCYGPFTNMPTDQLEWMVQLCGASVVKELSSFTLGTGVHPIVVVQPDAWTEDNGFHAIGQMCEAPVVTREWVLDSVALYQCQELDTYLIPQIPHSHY

## Biotin-KHDAIMDGASPDYVLV [biotinylated CSB peptide without S1276 phosphorylation]
  binding result: binds
